From a protein production outcome set (Wang et al. 2014)

assay: label from the status in PepcDB records

Sequence	protein production
KRFESPSVIKPNTLTNQQLIETCDQLIENAVKHHLVADVPVGLYLSGGIDSTLLLSKIRKLGHLNFPTFTIANSSREQAFGTRDFEFARLASKLYNSDHHEVSVHAEMLQDLPAFVSMIDQPIGDSALFLTHILSKEAGQHVRVALNGAGADELFAGYNRHSAYKSYLNNLLHKNLAITLIKSTYNILPDGGNHSLKKVFRLWNKFTGMMDVDPIKTCHNFSSSEYFIEKNTSIEVDDKSYEDLSYYLYYCLRNDRTKYLISDILALTDKMTMRSSIEARVPYLDQELRRFVESLDPSVLLKNGRKWILKEVLLRNGGETFLNRPKEGFGMPFGYWLKLPVNKNFVEKLTNKNHPIYEWVPYQTIKNLVDWHLGSKRDCSSELWSVLLLMHWYEKE	failed
KRITRPGNTDDPSGGNKVLLLSIQNPLYPITVDVLYTVCNPVGKVQRIVIFKRNGIQAMVEFESVLCAQKAKAALNGADIYAGCCTLKIEYARPTRLNVIRNDNDSWDYTKPYLGRR	not failed
KRQKIHLGDRSQKCSKCGIIFIRRSTLSRRKTPMCEKCRKDSCQEAALNKDEGNESGKKT	not failed
KTPADNIETADLSASVPTRPAEPERKTLADYGGYPSALDAVKQKNDAAVAAYLENAGDSAMAENVRNEWLKSLGARRQWTLFAQEYAKLEPAGRAQEVECYADSSRNDYTRAAELVKNTGKLPSGCTKLLEQAAASGLLDGNDAWRRVRGLLAGRQTTDARNLAAALGSPFDGGTQGSREYALLNVIGKEARKSPNAAALLSEMESGLSLEQRSFAWGVLGHYQSQNLNVPAALDYYGKVADRRQLTDDQIEWYARAALRARRWDELASVISHMPEKLQKSPTWLYWLARSRAATGNTQEAEKLYKQAAATGRNFYAVLAGEELGRKIDTRNNVPDAGKNSVRRMAEDGAVKRALVLFQNSQSAGDAKMRRQAQAEWRFATRGFDEDKLLTAAQTAFDHGFYDMAVNSAERTDRKLNYTLRYISPFKDTVIRHAQNVNVDPAWVYGLIRQESRFVIGAQSRVGAQGLMQVMPATAREIAGKIGMDAAQLYTADGNIRMGTWYMADTKRRLQNNEVLATAGYNAGPGRARRWQADTPLEGAVYAETIPFSETRDYVKK	failed
KVGVLVAAHGMSTASSMAQVVGQLLDDYDVQAFDMPLDMDPSVAYDHVKRRVEKLDSGKGILLLVDMGSLTTFGERIQQETGIATRTIDMVTTPVVLEAVRKASLVDSDLDSMYQELVGFKGYSRISRNLPTDSQ	failed
KVIIAIDAGHGGQDPGAIGPNGTKEKNVTIAIARKLRALLNADPQFKPVLTRDGDYFISVMGRSEVARKQNANFLVSIHADAAPNRDATGASVWVLSNRRANSEMAGWLEQHEKQSELLGGAGDVLANSQADPYLSQAVLDLQFGHSQRVGYDVATNVLSQLQRIGNLHKRRPEHASLGVLRSPDIPSILVETGFISNNGEERLLGSDDYQEQIAEAIYNGLRNYFMQHPLQSAPRGEAAQTASAAAPGGMLIN	failed
KVVLYARVSSKQKDELVNQVKYLEEQVKEYDLVITDIGSGLNMKRKGFLKLLRMILNNEVSRVVIAYPDRLVRFGFEILEETCKAHGCEIVVLNQEEKEEELVEDLISVLVSFSEKLHGMRSHEYEKVKKCAEELKN	failed
KYANGTFFTYRPEAWDWMYTVAEEFDTIVAGLFGLITGGLLSVDSIAGEFENGTISRLYSLPINRWEIYFGKVIEKI	failed
KYNPVVNPERALERRNWILGRMLQLGYINQTQYQQAVAEPINLDMPDRGVSNRYPYIGEMVRAELVEKFGEQAVDSGY	failed
KYPFLREAGSSFKDRDVTKMSDLIATWDGQDIKGPALIGVPLSKSSISHSGASFAPGTIRQALKHSSAYSAELGEHVVSELLYDLGDIDIHVTDIVKSHHHIFQTMHALLSDHPDWVPLILGGDNSISYSTIKAIAQTKGTTAVIQFDAHHDVRNTEDGGPTNGTPFRRLLDEEIIEGQHLIQLGIREFSNSQAYEAYAKKHNVNIHTMDMIREKGLIPTIKEILPVVQDKTDFIFISVDMDVLDQSHAPGCPAIGPGGLYTDELLEAVKYIAQQPNVAGIEIVEVDPTLDFRDMTSRAAAHVLLHALK	failed
LAELFEKAAAHLQGLIQVASREQLLYLYARYKQVKVGNCNTPKPSFFDFEGKQKWEAWKALGDSSPSQAMQEYIAVVKKLDPGWNPQIPEKKGKEA	not failed
LDKMSKKTRQAIRTSKNKGVDIQFGSHELLEDFAELMKKTEDRKGINLRGIDYYQKLLDTYPNNSYITMASLDVAKRLEKIEKECQIAQSERIKSLELNREKKVKQHQGTIDRLNKEIDFLKEAQKAYDRDIIPLAATLTLEFGNTSENIYAGMDDYFKSYSAPIYTWFETAQRAFERGNIWQNMGGIENDLSGGLYHFKSKFEPII	failed
LDQILRATVEEVRAFLGTDRVKVYRFDPEGHGTVVAEARGGERLPSLLGLTFPAGDIPEEARRLFRLAQVRVIVDVEAQSRSISQPESWGLSARVPLGEPLQRPVDPCHVHYLKSMGVASSLVVPLMHHQELWGLLVSHHAEPRPYSQEELQVVQLLADQVSIAIAQAELSL	not failed
LDRAYLRVENQRYRDKLEAANRELQASLNLLQEDQNAGRQVQMNMLPVTPWSIEGLEFSHRIIPSLYLSGDFVDYFRVDERRVAFYLADVSGHGASSAFVTVLLKFMTTRLLYESRRNGTLPEFKPSEVLAHINRGLINTKLGKHVTMLGGVIDLEKNSLTYSIGGHLPLPVLFVEGQAGYLEGRGLPVGLFDDATYDDRVMELPPSFSLSLFSDGILDVLPGATLKEKEASLPEQVAAAGGTLDGLRQVFGLANLAEMPDDIALLVLSRNLA	failed
LDSELELPAGWEKIEDPVYGIYYVDHINRKTQYENPVLEAKRKKQLE	not failed
LEEVQLVVEPEGGAVAPGGTVTLTCEVPAQPSPQIHWMKDGVPLPLPPSPVLILPEIGPQDQGTYSCVATHSSHGPQESRAVSISIIEPGEEGPTAGSVGGSGLGTLALALGILGGLGTAALLIGVILWQRRQRRGEERKAPENQEEEEERAELNQSEEPEAGESSTGGP	not failed
LEKNDLVYMQRAFELNDKVAKDIMIDRTQLVVIDITSTVKEALNVYLQERFSRLPVVADNDKDKVLGYVYNYDLTRQQQVDSSVRVDKLIRDISTTPETTPITQVLQQMIKKRTPIVVVVDEYGGTSGIITDKDIYEEL	failed

Sequence	protein production
LELLEALSLPVWIFDIDHRRVFWANEAALQVWGAGSLLELQTRDMARDMSVSVAQRLAQYQQDFEREGASFVESWTLYPNGRPSVLKVKFRGIRVNGRMLMFCEAQN	failed
LEPRKKAEEALRKSEERFAKAFRMAPVPSLVLYGDDLQALDINQAFSETFGYQAEELLGESTVACGLWQDGGAERLGELLAQSGSVRNVQLRLQHKDRNGLDCLVSAEAVSLNEQDCVLVALLDIS	not failed
LETSWIKPGQASWEWWNDAAPYGPDVNFVSGYNLETYKYYIDFASKYGIRYIIMDEGWAKSTRDPYTPNAKVDVHELIRYAEKKNVGIVLWLTWLTVENNMDLFKTFSEWGVKGVKIDFMDRSDQWMMNFYERVAAEAAKYKLFVDFHGSVSPKGLEYKYPNVLSYEGVRGMEQMGGATPDNSIFMPFMRNAVGAMD	not failed
LFQRVLYATDFSENATRAFDAFQYLRHATQEATLVHVESPKDATSEADPAEQLASLADTLSQWDIETNVEVRRGDPAEEILDVEAAVTPTTTLVGSRGQSRMRRLLLGSVSEDIIAQATGNVYLVPPP	failed
LGLVCLTVGPEVRFRTVTLSRYRALSPAEREAKLLDLYSSNIKTLRGAADYCAAHDIRLYRLSSSLFPMLDLAGDDTGAAVLTHLAPQLLEAGHAFTDAGVRLLMHPEQFIVLNSDRPEVRESSVRAMSAHARVMDGLGLARTPWNLLLLHGGKGGRGAELAALIPDLPDPVRLRLGLENDERAYSPAELLPICEATGTPLVFDAHHHVVHDKLPDQEDPSVREWVLRARATWQPPEWQVVHLSNGIEGPQDRRHSHLIADFPSAYADVPWIEVEAKGKEEAIAALRLMAPFKKD	failed
LIIFCLLSVVAAAAYFSFSHWAIRHETLTFFDESRGRPVAIDLAVRRDAEMKAEAGMVTLPVAVVSHGNTVKNTEYSFLANVLAARGYLVASIQHDLPDDKPLMTVAGSLYVGRLAVYERGEKNIFFALKELKKLEPNADYDHLTLVGHSNGGDISMFFAQQHPEMVRRVVTLD	failed
LKVLTNKASVMLFMKGNKQEAKCGFSKQILEILNSTGVEYETFDILEDEEVRQGLKTFSNWPTYPQLYVRGDLVGGLDIVKELKDNGELLPILKGE	not failed
LLGELNEWLQSCRSLEELFAMVSRFMEHILPDAEGSLYVYSNSRDVLDGSAGWNGGAFKDHIHPEACWGLRRGRSYEYGASEVDFVCDHAEPHDGRPYFCFPVLAHGETVGLMHLRAQPGAEAEFSASKRLAQMCAEQISMAIANVRMRDQLHDQ	failed
LLHRTFMADAGWSDLKAFEVILRHIPHDAALHAANSTPVRYLQLFEHAHYAGGEWSNRGTNGIEGATSTAMGFSEVYSGTTLLITGDLSFMYDSNALWMPYVNGRIRVIVMRNGGGGIFRFIPGPDSLKELETCFETPLEVPVREMAGAYGWRYMKAVSAEELETVLPSFFASGDRAVLLEVETPRFENAPVLKSYFTYISGESYPVNR	failed
LLKVEFYKLKRSKVFYLFIVLMIMQSMFVLIPIKENYLLNKTGQDMFLQSFPLQEFIFNTLIIGAFGYFIGKEFHSGYIKNLIVSGHKRINIVLSKAIVFCIGVAIISFIFPICTFVINSIRNGYGEKYSVEYMFEVSVIMLFVYLAIGSIVTMISFITKNIAITIALFYLI	failed
LLTSQIVDQYAEHIFYNSGAVGMALVVIDNNQVVNRSFGETQPGNNIRPRPDSLIRIASITKLMTSEIMVKLADDGIVKLTDPLKKYAPKGVNVPSYSAKQPIRLLHLASHTSGLPREQPGGPQKRPVFTWPTKDNRWQWLKLAKVTVPPGVKAAYSNLAYDLLADALSRAAGKPYAHLLRDKITAPLGMKNTTLTPTAEQCKRLMIGVGSSRCGNTVAAAGSGGIYSTPEDMQHWMQQFLASDNSAPKRSAKREQALYFQRGDLVSLKGMDVAGQADALGLGWVYMAPKADLPGIMQKTGGGGGFITYMAMVPEKNIGVFVVVTRSQLTKFSNMSDGVNQLVAELVK	not failed
LPPKKFGNPGERLRKKKWDLSELPKFEKNFYVEHPEVARLTPYEVDELRRKKEITVRGGDVCPKPVFAFHHANFPQYVMDVLMDQHFTEPTPIQCQGFPLALSGRDMVGIAQTGSGKTLAYLLPAIVHINHQPYLERGDGPICLVLAPTRELAQQVQQVADDYGKCSRLKSTCIYGGAPKGPQIRDLERGVEICIATPGRLIDFLESGKTNLRRCTYLVLDEADRMLDMGFEPQIRKIVDQIRPDRQTLMWSATWPKEVRQLAEDFLRDYTQINVGNLELSANHNILQIVDVCMESEKDHKLIQLMEEIMAEKENKTIIFVETK	failed
LQVGKVYIFGSGHVARALVPILNYLSFYCVVVDDRPEFLTAQAFPQAEELRVIPLENLAAFIEITADDYGIVITRGHNFDFIVAKQLLETPAKYIGVMGSKHKIASQVRRLKEVGYTMTEIERIFMPIGLDIAAETPEELAISIAGELIQQRYQ	failed
LRARTYGEGGFRVERVLEERPAFTRVQFSYLSDGLRVHGFANLPKGRGPFPVVVVLHGYVEPSRYRLLAYTTPYADFLAERGYLVLHPNFRGHPPSEGAPAQGLRHVYAVDVLNLLAEVRRGAFPQADPAR	failed
LRKMIALIHKDYAKNLRLETLASVFNYNRAYLGKLFKNYTGEYFNTYLDKVRIENGKRLLQKGYKVYEVAEKIGYANVDYFHRKFKKYVGVSPSTFRKR	not failed
LRKMIALIHKDYAKNLRLETLASVFNYNRAYLGKLFKNYTGEYFNTYLDKVRIENGKRLLQKGYKVYEVAEKIGYANVDYFHRKFKKYVGVSPSTFRKRHDHLQVYHD	failed
